Reference: patent US20140314775A1 (ADRENOMED, published 2014)

Tests used:
[1] = biological target: T1, human Adrenomedullin (hADM 1-52) (human, not fully specified; C-terminal amide (printed as PRSKISPQGY-NH2 for aa 43-52 of ADM, SEQ ID NO: 25; not restated for the peptide used in the assays)); test: SPR, Biacore 2000; antibody captured via anti-mouse Fc on CM5, Adrenomedullin as analyte
T1 construct: also called Human ADM 1-52; human ADM
T1 peptide: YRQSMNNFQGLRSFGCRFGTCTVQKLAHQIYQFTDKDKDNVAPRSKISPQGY
Method: Reversible immobilization of the antibodies was performed using an anti-mouse Fc antibody covalently coupled in high density to a CM5 sensor surface according to the manufacturer's instructions (mouse antibody capture kit; GE Healthcare).

[2] = biological target: T1, human Adrenomedullin (hADM 1-52); test: cell-based or functional assay

- Kd [1]: 5.9 nM
- IC50 (read off the curve; half of the partial plateau), in the presence of 5.63 nM hADM [2]: ~2 µg/mL
B1: NT-H (antibody, V domains shown)
VH: QVQLQQSGAELMKPGASVKISCKATGYTFSRYWIEWVKQRPGHGLEWIGEILPGSGSTNYNEKFKGKATITADTSSNTAYMQLSSLTSEDSAVYYCTEGYEYDGFDYWGQGTTLTVSS
VL: DVLLSQTPLSLPVSLGDQATISCRSSQSIVYSNGNTYLEWYLQKPGQSPKLLIYRVSNRFSGVPDRFSGSGSGTDFTLKISRVEAEDLGVYYCFQGSHIPYTFGGGTKLEIK
notes: also called antibody NT-H; NT-H antibody
